Experiments:
human C-peptide (human) [1] = experiment: ELISA on immobilized C-peptide; labeled antibody 0.1 ug/ml, free C-peptide 0.1 ug/ml
human C-peptide (human) [2] = experiment: ELISA on immobilized C-peptide; labeled antibody 10 ug/ml, free C-peptide 10 ug/ml
human C-peptide (human) [3] = experiment: sandwich immunoassay, two-step; CPT-3F-11 on particles, labeled antibody 9101
human C-peptide (human) [4] = experiment: ELISA on immobilized C-peptide; labeled antibody 1.0 ug/ml, free C-peptide 10 ug/ml
human proinsulin (human) [5] = target: human proinsulin (human) (UniProt P01308); experiment: sandwich immunoassay, one-step, against C-peptide calibration; proinsulin 50 ng/ml; CPT-3-F11 on particles, labeled antibody 9101
human C-peptide (human) [6] = experiment: ELISA on immobilized C-peptide; labeled antibody 1.0 ug/ml, free C-peptide 0.1 ug/ml
human C-peptide (human) [7] = experiment: sandwich immunoassay, one-step; CPT-3F-11 on particles, labeled antibody PEP-001
human C-peptide (human) [8] = experiment: ELISA on immobilized C-peptide; labeled antibody 10 ug/ml, free C-peptide 1.0 ug/ml
human proinsulin (human) [9] = target: human proinsulin (human) (UniProt P01308); experiment: sandwich immunoassay, one-step; proinsulin 200 ng/ml; CPT-3F-11 on particles, labeled antibody 9101
human proinsulin (human) [10] = target: human proinsulin (human) (UniProt P01308); experiment: sandwich immunoassay, two-step, against C-peptide calibration; proinsulin 50 ng/ml; CPT-3-F11 on particles, labeled antibody PEP-001
human C-peptide (human) [11] = experiment: ELISA on immobilized C-peptide; labeled antibody 0.0 ug/ml (blank), free C-peptide 10 ug/ml
human C-peptide (human) [12] = experiment: ELISA on immobilized C-peptide; labeled antibody 0.1 ug/ml, free C-peptide 1.0 ug/ml
human proinsulin (human) [13] = target: human proinsulin (human) (UniProt P01308); experiment: sandwich immunoassay, one-step; proinsulin 50 ng/ml; CPT-3F-11 on particles, labeled antibody 9101
[14] = target: modified C-peptide (human C-peptide having Arg-Arg bound to its N-terminal and Lys-Arg bound to its C-terminal) (human); experiment: sandwich immunoassay, one-step, against C-peptide calibration; modified C-peptide 5 ng/ml; CPT-3F-11 on particles, labeled antibody PEP-001
human C-peptide (human) [15] = experiment: ELISA on immobilized C-peptide; labeled antibody 0.1 ug/ml, free C-peptide 0 ug/ml
human C-peptide (human) [16] = experiment: ELISA on immobilized C-peptide; labeled antibody 10 ug/ml, free C-peptide 0.1 ug/ml
human C-peptide (human) [17] = experiment: sandwich immunoassay, two-step; CPT-3F-11 on particles, labeled antibody PEP-001
human C-peptide (human) [18] = experiment: ELISA on immobilized C-peptide; labeled antibody 0.0 ug/ml (blank), free C-peptide 0.1 ug/ml
human proinsulin (human) [19] = target: human proinsulin (human) (UniProt P01308); experiment: sandwich immunoassay, two-step, against C-peptide calibration; proinsulin 400 ng/ml; CPT-3-F11 on particles, labeled antibody 9101
human C-peptide (human) [20] = experiment: ELISA on immobilized C-peptide; labeled antibody 1.0 ug/ml, free C-peptide 0 ug/ml (reference)
human proinsulin (human) [21] = target: human proinsulin (human) (UniProt P01308); experiment: sandwich immunoassay, one-step, against C-peptide calibration; proinsulin 400 ng/ml; CPT-3-F11 on particles, labeled antibody 9101
human C-peptide (human) [22] = experiment: ELISA on immobilized C-peptide; labeled antibody 1.0 ug/ml, free C-peptide 1.0 ug/ml
human C-peptide (human) [23] = experiment: ELISA on immobilized C-peptide; labeled antibody 10 ug/ml, free C-peptide 0 ug/ml (reference)
[24] = target: modified C-peptide (human C-peptide having Arg-Arg bound to its N-terminal and Lys-Arg bound to its C-terminal) (human); experiment: sandwich immunoassay, two-step, against C-peptide calibration; modified C-peptide 5 ng/ml; CPT-3F-11 on particles, labeled antibody PEP-001
human C-peptide (human) [25] = experiment: ELISA on immobilized C-peptide; labeled antibody 1.0 ug/ml, free C-peptide 0 ug/ml
human proinsulin (human) [26] = target: human proinsulin (human) (UniProt P01308); experiment: sandwich immunoassay, two-step, against C-peptide calibration; proinsulin 200 ng/ml; CPT-3-F11 on particles, labeled antibody 9101
human proinsulin (human) [27] = target: human proinsulin (human) (UniProt P01308); experiment: sandwich immunoassay, two-step; proinsulin 200 ng/ml; CPT-3F-11 on particles, labeled antibody 9101
human C-peptide (human) [28] = experiment: ELISA on immobilized C-peptide; labeled antibody 0.1 ug/ml, free C-peptide 0 ug/ml (reference)
human proinsulin (human) [29] = target: human proinsulin (human) (UniProt P01308); experiment: sandwich immunoassay, one-step; proinsulin 400 ng/ml; CPT-3F-11 on particles, labeled antibody 9101
human C-peptide (human) [30] = experiment: ELISA on immobilized C-peptide; labeled antibody 0.0 ug/ml (blank), free C-peptide 1.0 ug/ml
human C-peptide (human) [31] = experiment: ELISA on immobilized C-peptide; labeled antibody 0.0 ug/ml (blank), free C-peptide 0 ug/ml
human proinsulin (human) [32] = target: human proinsulin (human) (UniProt P01308); experiment: sandwich immunoassay, two-step, against C-peptide calibration; proinsulin 50 ng/ml; CPT-3-F11 on particles, labeled antibody 9101
human proinsulin (human) [33] = target: human proinsulin (human) (UniProt P01308); experiment: sandwich immunoassay, two-step; proinsulin 400 ng/ml; CPT-3F-11 on particles, labeled antibody 9101

human C-peptide (human), sequence (peptide, as listed by the source): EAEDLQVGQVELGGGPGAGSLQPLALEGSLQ
UniProt P01308, sequence (P01308 25-110): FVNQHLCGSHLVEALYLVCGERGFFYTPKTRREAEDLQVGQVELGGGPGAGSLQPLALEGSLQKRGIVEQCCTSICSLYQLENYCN
modified C-peptide (human C-peptide having Arg-Arg bound to its N-terminal and Lys-Arg bound to its C-terminal) (human), sequence (peptide, as listed by the source): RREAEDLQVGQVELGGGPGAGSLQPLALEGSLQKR

anti-human C-peptide monoclonal antibody CPT-3-F11 (Dako)
Absorbance (absorbance at 405 nm) (human C-peptide (human) [1]): 0.179
Binding Ratio (human C-peptide (human) [1]): 11.8%
Absorbance (absorbance at 405 nm) (human C-peptide (human) [2]): 0.008
Binding Ratio (human C-peptide (human) [2]): 0.1%
2S/N value (human C-peptide (human) [3]): 0.005 ng/mL
Absorbance (absorbance at 405 nm) (human C-peptide (human) [4]): 0.003
Binding Ratio (human C-peptide (human) [4]): 0.2%
Cross-reactivity (%) to Human Proinsulin (human proinsulin (human) [5]): 0.9%
Absorbance (absorbance at 405 nm) (human C-peptide (human) [6]): 0.311
Binding Ratio (human C-peptide (human) [6]): 16%
2S/N value (human C-peptide (human) [7]): 0.012 ng/mL
Absorbance (absorbance at 405 nm) (human C-peptide (human) [8]): 0.059
Binding Ratio (human C-peptide (human) [8]): 2.7%
counts of chemiluminescence (human proinsulin (human) [9]): 51300 counts
Cross-reactivity (%) to Human Proinsulin (human proinsulin (human) [10]): 41.1%
Absorbance (absorbance at 405 nm) (human C-peptide (human) [11]): 0
Binding Ratio (human C-peptide (human) [11]): 0%
Absorbance (absorbance at 405 nm) (human C-peptide (human) [12]): 0.026
Binding Ratio (human C-peptide (human) [12]): 1.7%
counts of chemiluminescence (human proinsulin (human) [13]): 4140 counts
Cross-reactivity (%) to Modified C-peptide [14]: 62.7%
Absorbance (absorbance at 405 nm) (human C-peptide (human) [15]): 1.52
Absorbance (absorbance at 405 nm) (human C-peptide (human) [16]): 0.336
Binding Ratio (human C-peptide (human) [16]): 15.5%
2S/N value (human C-peptide (human) [17]): 0.006 ng/mL
Absorbance (absorbance at 405 nm) (human C-peptide (human) [18]): 0
Binding Ratio (human C-peptide (human) [18]): 0%
Cross-reactivity (%) to Human Proinsulin (human proinsulin (human) [19]): 1.4%
Binding Ratio (human C-peptide (human) [20]): 100%
Cross-reactivity (%) to Human Proinsulin (human proinsulin (human) [21]): 3%
Absorbance (absorbance at 405 nm) (human C-peptide (human) [22]): 0.062
Binding Ratio (human C-peptide (human) [22]): 3.2%
Binding Ratio (human C-peptide (human) [23]): 100%
Cross-reactivity (%) to Modified C-peptide [24]: 53.2%
Absorbance (absorbance at 405 nm) (human C-peptide (human) [25]): 1.94
Cross-reactivity (%) to Human Proinsulin (human proinsulin (human) [26]): 1.2%
counts of chemiluminescence (human proinsulin (human) [27]): 42500 counts
Binding Ratio (human C-peptide (human) [28]): 100%
counts of chemiluminescence (human proinsulin (human) [29]): 118000 counts
Absorbance (absorbance at 405 nm) (human C-peptide (human) [30]): 0
Binding Ratio (human C-peptide (human) [30]): 0%
Absorbance (absorbance at 405 nm) (human C-peptide (human) [31]): 0
Binding Ratio (human C-peptide (human) [31]): 0%
Cross-reactivity (%) to Human Proinsulin (human proinsulin (human) [32]): 0.4%
counts of chemiluminescence (human proinsulin (human) [33]): 99400 counts
